Source: paper PMC3429473, “The Weak Complex between RhoGAP Protein ARHGAP22 and Signal Regulatory Protein 14-3-3 Has 1∶2 Stoichiometry and a Single Peptide Binding Mode” (PLoS ONE, 2012)
Where two headings read alike, the source gives them in different places.

Tests used:
[1] = target: AG22 (1–422) S16D/S411D phosphomimic double mutant (human); experiment: cross-linking; AG22 proteins (10 µM) and 14-3-3 (30 µM), alone or mixed, in 50 mM HEPES pH 8.6 with 3 mM BS3 at room temperature for 5 to 30 min; SDS-PAGE, Coomassie Blue
[2] = target: wild type AG22 (1–422) (human); experiment: as above
[3] = target: AG22 (1-422) S16D/S411D (human); experiment: small-angle X-ray scattering (SAXS) titration; AG22 (1-422) S16D/S411D at 26.5 µM (1.25 mg/mL) pre-mixed with 14-3-3 at molar 14-3-3_(2):AG22 ratios of 0.5:1.0, 1.0:1.0, 1.5:1.0 and 2.0:1.0, about 1 hour on ice, measured at room temperature (295 K); scattering fitted as a linear combination of the profiles of 14-3-3_(2), AG22 and the cross-linked complex; Kd = (W_AG22 x W_14-3-3)/W_Complex for each titration point
[4] = target: AG22 (1–422) S16D/S411D phosphomimic double mutant (human); experiment: SAXS titration; AG22 (1–422) S16D/S411D at 26.5 µM (1.25 mg/mL) mixed with 14-3-3 dimer at molar ratios 0.5, 1.0, 1.5 and 2.0; about 1 h on ice; data fitted as linear combinations of the profiles of the two proteins and of the cross-linked complex; Kd counted on the 14-3-3 dimer
[5] = target: AG22 (1–422) S16D/S411D phosphomimic double mutant (human); experiment: cross-linking + SEC; 1:2 mixture cross-linked with BS3 for 30 min in 50 mM Hepes pH 8.6, purified by gel filtration, then analytical Superdex S200 10/300GL in 25 mM HEPES pH 7.5, 150 mM NaCl, 2 mM β-ME
[6] = target: AG22 (1-422) S16D/S411D (human); experiment: small-angle X-ray scattering (SAXS) titration; AG22 (1-422) S16D/S411D at 26.5 µM (1.25 mg/mL) pre-mixed with 14-3-3 at molar 14-3-3_(2):AG22 ratios of 0.5:1.0, 1.0:1.0, 1.5:1.0 and 2.0:1.0, about 1 hour on ice, measured at room temperature (295 K); scattering fitted as a linear combination of the profiles of 14-3-3_(2), AG22 and the cross-linked complex; Kd = (W_AG22 x W_14-3-3)/W_Complex for each titration point; remark: listed apart in the source
[7] = target: AG22 (1-422) S16D/S411D (human); experiment: as above; remark: listed apart in the source
[8] = target: the molecule itself; experiment: cross-linking; AG22 proteins (10 µM) and 14-3-3 (30 µM), alone or mixed, in 50 mM HEPES pH 8.6 with 3 mM BS3 at room temperature for 5 to 30 min; SDS-PAGE, Coomassie Blue
AG22 (1–145) S16D = target: T1, AG22 (1–145) S16D (human); experiment: as above; conditions: both partners purified
T1 chain: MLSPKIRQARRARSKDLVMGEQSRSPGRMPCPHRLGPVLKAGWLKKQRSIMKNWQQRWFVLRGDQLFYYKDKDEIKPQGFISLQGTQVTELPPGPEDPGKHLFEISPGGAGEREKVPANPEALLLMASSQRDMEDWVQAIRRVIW

- stoichiometry N (14-3-3 chains per AG22 molecule) [1]: 2
- stoichiometry N (14-3-3 chains per AG22 molecule) [2]: 2
- Kd [3]: 27.4 µM
- Kd ([3]; record 2): 30.6 µM
- Kd [4]: 28 µM
- stoichiometry N (14-3-3 chains per AG22 molecule) [5]: 2
- Kd [6]: 34.2 µM
- Kd [7]: 20.9 µM
- stoichiometry N (AG22 (1–145) S16D): 2 14-3-3 chains per AG22 molecule
B1: human 14-3-3 β (natural protein)
chain: MTMDKSELVQKAKLAEQAERYDDMAAAMKAVTEQGHELSNEERNLLSVAYKNVVGARRSSWRVISSIEQKTERNEKKQQMGKEYREKIEAELQDICNDVLELLDKYLIPNATQPESKVFYLKMKGDYFRYLSEVASGDNKQTTVSNSQQAYQEAFEISKKEMQPTHPIRLGLALNFSVFYYEILNSPEKACSLAKTAFDEAIAELDTLNEESYKDSTLIMQLLRDNLTLWTSENQGDEG
notes: human 14-3-3 β isoform, codon-optimized synthetic gene (GeneArt) in pET20b; calculated monomer mass 29.3 kDa; the printed monomer mass of 29.3 kDa would fit the whole protein with the tag; Dimer by cross-linking and SAXS; also called 14-3-3_(2); 14-3-3 β isoform; not shown: His6, C-terminal, kept
- stoichiometry N [8]: 2
